Laboratory results reported in paper PMC11940719, “Assembly Formation of P65 Protein, Featured by an Intrinsically Disordered Region Involved in Gliding Machinery of Mycoplasma pneumoniae” (Biomolecules, 2025).
Like-named read-outs stand apart in the source and are kept apart here.

Key:
[1] = biological target: P65 fragment C (tryptic fragment of region II) (Mycoplasma pneumoniae (strain M129-B7)); experiment: AUC; sedimentation velocity in 150 mM NaCl, 20 mM Tris-HCl (pH 8.0); absorbance scans at 10-minute intervals; C(s) distribution (SEDFIT)
[2] = biological target: the molecule itself; experiment: as above
[3] = biological target: the molecule itself; experiment: negative staining electron microscopy; proteins at 40 µg/mL stained with 2% uranyl acetate on carbon-coated grids, 80 kV
[4] = biological target: the molecule itself; experiment: AUC; sedimentation velocity in 150 mM NaCl, 20 mM Tris-HCl (pH 8.0); absorbance scans at 10-minute intervals; C(s) distribution (SEDFIT); remark: listed apart in the source

In the case of “P65 fragment C (tryptic fragment of region II) (domain or fragment)”, the stoichiometry N [1] is reported as 3.

B1: P65 fragment D (regions I and II, residues 1-320) (domain or fragment)
chain: MDINKPGWNQSDQQATAYDPNQQQYYGDGSTYYDPDQAVDPNQAYYPDPNTYPDAAAYYGYGQDGQAYPQDYAQDPNQAYYADPNAYQDPNAYTDPNAYVDPNAYQDPNAYVDPNNYTDPNAYYGYGQDGQAYPQDYAQDPNQAYYADPNAYQDPNAYTDPYYVTSTDPNAYYGQVDNVPALEASDLAYEVTPQEQAAEQELFSEPETKVIREIHEFPFEKIRSYFQTDFDSYNSRLTQLKDKLDNAIFSMRKAIDTVKENSANLQIMKQNFERQLKEQQTQRLTSNTDAEKIGAKINQLEERMQRLSRTMESVEWTKKE
notes: P65 protein of Mycoplasma pneumoniae strain M129-B7 (AGC04228), residues 1-320 (regions I and II); No cleavage of the tag is described; The printed theoretical mass of 39,080 Da probably includes the tag peptide; source: E. coli BL21(DE3), soluble fraction, purified (HisTrap HP, size exclusion chromatography)
In the case of B1, the “stoichiometry N” value [2] is reported as 3.

B2: P65 fragment B (residues 185-405) (domain or fragment)
chain: SDLAYEVTPQEQAAEQELFSEPETKVIREIHEFPFEKIRSYFQTDFDSYNSRLTQLKDKLDNAIFSMRKAIDTVKENSANLQIMKQNFERQLKEQQTQRLTSNTDAEKIGAKINQLEERMQRLSRTMESVEWTKKEPRQEQFDPRFVDPRNFNNYVNNTDTMMSMFEKVLMMNLLRSTTPVQPPVQYFTPQPLTASPRPVYEEPISASFRRRGYRGDEFYE
notes: P65 protein of Mycoplasma pneumoniae strain M129-B7 (AGC04228), residues 185-405 by mass spectrometry (26.3 kDa; theoretical 26,279 Da); peptide mass fingerprinting covers at least residues 212-405; source: the digest containing fragment B was used
B2: binds [3].

B3: full-length P65 protein of Mycoplasma pneumoniae (natural protein)
chain: MDINKPGWNQSDQQATAYDPNQQQYYGDGSTYYDPDQAVDPNQAYYPDPNTYPDAAAYYGYGQDGQAYPQDYAQDPNQAYYADPNAYQDPNAYTDPNAYVDPNAYQDPNAYVDPNNYTDPNAYYGYGQDGQAYPQDYAQDPNQAYYADPNAYQDPNAYTDPYYVTSTDPNAYYGQVDNVPALEASDLAYEVTPQEQAAEQELFSEPETKVIREIHEFPFEKIRSYFQTDFDSYNSRLTQLKDKLDNAIFSMRKAIDTVKENSANLQIMKQNFERQLKEQQTQRLTSNTDAEKIGAKINQLEERMQRLSRTMESVEWTKKEPRQEQFDPRFVDPRNFNNYVNNTDTMMSMFEKVLMMNLLRSTTPVQPPVQYFTPQPLTASPRPVYEEPISASFRRRGYRGDEFYE
notes: P65 protein of Mycoplasma pneumoniae strain M129-B7, p65 gene (AGC04228), codon-optimised, in pET-15b (NdeI, BamHI); 405 residues; Forms a multimer of more than 60 subunits (about 3.10 x 10^6 Da) by analytical ultracentrifugation; The printed mass of 49,203 Da probably includes the tag peptide; also called Whole
For B3, the “stoichiometry N” value [4] was greater than 60.
